Experimental data as given in patent publication US8715970B2, “Enzymatically catalyzed method of preparing mono-acylated polyols” (BASF SE, priority 2009, dated 2014).

B1: WT: non-mutated Candida antarctica lipase B (CALB), SEQ ID NO: 2, immobilized on carrier beads (protein, listed as Candida antarctica)
chain: LPSGSDPAFSQPKSVLDAGLTCQGASPSSVSKPILLVPGTGTTGPQSFDSNWIPLSAQLGYTPCWISPPPFMLNDTQVNTEYMVNAITTLYAGSGNNKLPVLTWSQGGLVAQWGLTFFPSIRSKVDRLMAFAPDYKGTVLAGPLDALAVSAPSVWQQTTGSALTTALRNAGGLTQIVPTTNLYSATDEIVQPQVSNSPLDSSYLFNGKNVQAQAVCGPLFVIDHAGSLTSQFSYVVGRSALRSTTGQARSADYGITDCNPLPANDLTPEQKVAAAALLAPAAAAIVAGPKQNCEPDLMPYARPFAVGKRTCSGIVTP
modifications: immobilized on carrier beads
B2: T40A: CALB mutant with single mutation Thr40Ala (SEQ ID NO: 4) (protein)
chain: LPSGSDPAFSQPKSVLDAGLTCQGASPSSVSKPILLVPGXGTTGPQSFDSNWIPLSAQLGYTPCWISPPPFMLNDTQVNTEYMVNAITTLYAGSGNNKLPVLTWSQGGLVAQWGLTFFPSIRSKVDRLMAFAPDYKGTVLAGPLDALAVSAPSVWQQTTGSALTTALRNAGGLTQIVPTTNLYSATDEIVQPQVSNSPLDSSYLFNGKNVQAQAVCGPLFVIDHAGSLTSQFSYVVGRSALRSTTGQARSADYGITDCNPLPANDLTPEQKVAAAALLAPAAAAIVAGPKQNCEPDLMPYARPFAVGKRTCSGIVTP
modifications: T40 Mutant

Experiments:
Format in all cases: biochemical
[1] = Enzyme-catalyzed acylation of 2-methyl-1,3-propanediol with ethyl acetate as acyl donor (Example 2); details: for Conversion at 3:1 (monoester:diester) / Maximum monoester yield: 2-Me-1,3-propanediol 20 mM in ethyl acetate; for Maximum monoester yield: 29° C.
Experimental: (§1) Each diol was dissolved to a concentration of 20 mM together with 5 mM of 3-hexanone in ethyl acetate, ≧99% from Fluka, which was used as acyl donor and solvent. Reactions were started by adding 4 ml reaction solution to 20 mg enzyme carrier beads loaded with either wild-type or T40A mutated CALB. Reactions were run at 29° C. on a HLC rotating thermo block. Aliquots of 50 μl were taken, filtered through wool in a Pasteur pipette and diluted with 50 μl ethyl acetate prior to analysis. The 3-hexanon used as internal standard were present in the reaction solution throughout both reaction and analysis.
(§2) 5 mM 3-hexanone was used as internal standard in the reaction mixtures together with 20 mM diol. Aliquots were taken during the reaction by taking 50 μl of reaction sample. The samples were filtered though wool together with 50 μl ethyl acetate, thereby any remaining enzyme were removed and the reaction samples were diluted by a factor of 2 prior to analysis.
(§3) The reactions catalyzed by the T40A-mutant were rerun with 100 mg enzyme carrier beads for determination of maximum monoester yield. The reactions with 2-methyl-1,3-propanediol and 2-phenyl-1,3-propanediol were rerun at 100 mM concentration of diol and 50 mg enzyme carrier beads, both with CALB wild type and CALB T40A-mutant. This was done in order to determine the enantiomeric excess.
(§4) All reactions were analyzed on GC, Hewlett Packard 5890 series II. Two different 25 m×0.32 mm WCOT fused silica columns were used, depending on the different substrates and products that were analyzed. A polar GC-column with CP Chirasil-Dex CB coating was used for the reactions with 1,2-ethanediol and 1,3-propanediol. A non-polar GC-column with CP-SIL 5CB coating was used for the reactions with 1,4-butanediol, 2-methyl-1,3-propanediol and 2-phenyl-1,3-propanediol.
(§5) The response factor for each diol was determined in relationship to 3-hexanone. When all diol and mono-ester had converted to di-ester, the response factor for the di-ester could be determined in relationship to […]. The concentration of mono-ester in each reaction was determined by subtracting the concentration of di-ester from the starting concentration of diol.
(§6) A great difference in concentration between acyl donor and diol was accomplished in the reactions by using ethyl acetate as solvent and acyldonor and a diol concentration of 20 mM. Therefore the reactions was considered to irreversible, following the reaction scheme:
(§7) [formula] A, B and C corresponds to diol, monoester and diester, respectively. k1 and k2 respectively corresponds to the reaction rates of the acylation of diol and monoester.
(§8) The reaction rates are dependent on enzyme concentrations and the kcat/KM towards the substrates. By fitting the concentrations measured over time into the equations and using the enzyme concentration determined by active site titration, the following results were obtained.

[2] = Acylation of 1,4-butanediol in competition with 1-butanol (Example 4)
Experimental: (§9) Additionally, 1-butanol, ≧99.5% from Riedel-de Haën, was used as a competing substrate.
(§10) 25 mM decane ≧98% from Fluka, was used as internal standard.
(§11) Two different acyl donors were used:
(§12) Ethyl acetate, ≧99% from Fluka, used as both solvent and acyl donor
(§13) 1 M Vinyl butyrate, >99% from Fluka, together with in MTBE, 99.5% from Lab-Scan, used as solvent.
(§14) Each diol was dissolved to a concentration of 100 mM together with 25 mM of decane in ethyl acetate, ≧99% from Fluka, used as acyl donor and solvent. Reactions were started by adding 3 ml reaction solution to 10 mg enzyme carrier beads loaded with wild-type CALB or 20 mg carrier beads loaded with T40A mutated CALB. Reactions were run at 29° C. in a temperature bath consisting of a HETO thermostat coupled to a Bom-roerder combined temperature bath and magnetic stirrer. 25 mM decane was used as internal standard were present in the reaction solution throughout both reaction and analysis. Aliquots of 60 μl were taken, filtered through wool in a Pasteur pipette together with 540 μl ethyl acetate prior to analysis. The filtration through wool removed any remaining enzyme from the reaction solution, and the reaction samples were diluted by a factor of 10 prior to analysis.
as §4, with “1,2-ethanediol.” for “1,2-ethanediol and 1,3-propanediol.”, “1,4-butanediol.” for “1,4-butanediol, 2-methyl-1,3-propanediol and 2-phenyl-1,3-propanediol.”
as §5, with “decane.” for “3-hexanone.”

[3] = Acylation of 1,2-ethanediol in competition with 1-butanol (Example 4)
Experimental: as §9, §10, §11, §12, §13, §14
as §4, with “1,2-ethanediol.” for “1,2-ethanediol and 1,3-propanediol.”, “1,4-butanediol.” for “1,4-butanediol, 2-methyl-1,3-propanediol and 2-phenyl-1,3-propanediol.”
as §5, with “decane.” for “3-hexanone.”

[4] = Enzyme-catalyzed acylation of 1,4-butanediol with ethyl acetate as acyl donor (Example 2); details: for Conversion at 3:1 (monoester:diester) / Conversion at 9:1 (monoester:diester) / Maximum monoester yield: 1,4-butanediol 20 mM in ethyl acetate; for Maximum monoester yield: 29° C.
Experimental: as §1, §2, §3, §4, §5, §6, §7, §8

[5] = Enzyme-catalyzed acylation of 2-phenyl-1,3-propanediol with ethyl acetate as acyl donor (Example 2); details: 2-Ph-1,3-propanediol 20 mM in ethyl acetate; for Maximum monoester yield: 29° C.
Experimental: as §1, §2, §3, §4, §5

[6] = Enzyme-catalyzed acylation of 1,4-butanediol with vinyl butyrate as acyl donor (Example 3); details: 1,4-butanediol 10 mM, 200 mM vinyl butyrate in MTBE, 29° C.
Experimental: Each diol was dissolved to a concentration of 10 mM together with 2 mM of decane ≧98% from Fluka and 200 mM vinyl butyrate >99% from Fluka in MTBE 99.5% from Lab-Scan, which was used as acyl donor and solvent. Reactions were started by adding 4 ml reaction solution to 20 mg enzyme carrier beads loaded with either wild-type or T40A mutated CALB. Reactions were run at 29° C. on a HLC rotating thermo block. Aliquots of 50 μl were taken, filtered through wool in a Pasteur pipette and diluted with 50 μl ethyl acetate prior to analysis. The decane used as internal standard were present in the reaction solution throughout both reaction and analysis.
All reactions were analyzed on GC, Hewlett Packard 5890 series II. A 25 m×0.32 mm WCOT fused silica non-polar GC-column with CP-SIL 5CB coating was used for the reactions.
as §5, with “decane.” for “3-hexanone.”

[7] = Enzyme-catalyzed acylation of 1,2-ethanediol with ethyl acetate as acyl donor (Example 2); details: for Maximum monoester yield: 1,2-ethanediol 20 mM in ethyl acetate (acyl donor and solvent), 29° C.; for Conversion at 3:1 (monoester:diester) / Conversion at 9:1 (monoester:diester): 1,2-ethanediol 20 mM in ethyl acetate; for Conversion at 3:1 (monoester:diester): product distribution 75%; for Conversion at 9:1 (monoester:diester): product distribution 90%
Experimental: as §1, §2, §3, §4, §5, §6, §7, §8

[8] = 2-methyl-1,3-propanediol, ethyl acetate

Molecule | Conversion at 3:1 (monoester:diester) [1] | Maximum monoester yield [1] | Selectivity diol/monoester [1, 8] | Initial reaction rates ([2]; ethyl acetate) | Initial reaction rates ([2]; vinyl butyrate) | Initial reaction rates ([3]; ethyl acetate) | Initial reaction rates ([3]; vinyl butyrate) | Conversion at 3:1 (monoester:diester) [4] | Conversion at 9:1 (monoester:diester) [4] | Maximum monoester yield [4] | Conversion at 3:1 (monoester:diester) [5] | Maximum monoester yield [5] | Maximum monoester yields [6] | Maximum monoester yield [7] | Conversion at 3:1 (monoester:diester) [7] | Conversion at 9:1 (monoester:diester) [7] | Selectivity diol/monoester ([7]; 1,2-ethanediol, ethyl acetate) | other results
B1 | 30% | 42% | 1.5 | 0.065 mol/g/min | 0.16 mol/g/min | 0.081 mol/g/min | 0.41 mol/g/min | <5% | <5% | 25% | 46% | 52% | 25% | 43% | 17% | <9% | 1.9 | Selectivity diol/monoester ([4]; 1,4-butanediol, ethyl acetate, listed as wild type): 0.63; Selectivity diol/monoester ([4]; 1,4-butanediol, ethyl acetate, listed as wild type CALB): 0.6; Maximum monoester yield ([7]; listed as wild type): 43%; Conversion at 3:1 (monoester:diester) ([7]; listed as wild type): 17%; Conversion at 9:1 (monoester:diester) ([7]; listed as wild type): 9%
B2 | 55% | 55% | 2.6 | 0.0008 mol/g/min | 0.016 mol/g/min | 0.002 mol/g/min | 0.065 mol/g/min | 64% | 26% | 49% | >95% | 55-65% | 44% | 77% | 99% | 78% | 7.7 | Selectivity ratio diol/monoester T40A/WT [1, 8]: 1.7; Selectivity diol/monoester ([1]; 2-methyl-1,3-propanediol, ethyl acetate, listed as T40A CALB): 2.5; Rate ratio, T40A/WT ([2]; ethyl acetate): 1.2%; Selectivity towards diol over 1-butanol, compared with wild type CALB ([2]; ethyl acetate as acyl donor and solvent (FIG. 9B)): higher; Rate ratio, T40A/WT ([2]; vinyl butyrate): 9.6%; Selectivity towards diol over 1-butanol, compared with wild type CALB ([2]; vinyl butyrate, MTBE (FIG. 10B)): higher; Rate ratio, T40A/WT ([3]; ethyl acetate): 2.5%; Selectivity towards diol over 1-butanol, compared with wild type CALB ([3]; ethyl acetate as acyl donor and solvent (FIG. 9A)): higher; Rate ratio, T40A/WT ([3]; vinyl butyrate): 16%; Selectivity towards diol over 1-butanol, compared with wild type CALB ([3]; vinyl butyrate, MTBE (FIG. 10A)): higher; Selectivity diol/monoester ([4]; 1,4-butanediol, ethyl acetate): 1.8; Selectivity ratio diol/monoester T40A/WT ([4]; 1,4-butanediol, ethyl acetate): 2.9; Selectivity diol/monoester ([4]; 1,4-butanediol, ethyl acetate, listed as T40A CALB): 1.9; Conversion at 3:1 (monoester:diester) ([7]; listed as T40A CALB): 99%; Conversion at 9:1 (monoester:diester) ([7]; listed as T40A CALB): 78%; Selectivity ratio diol/monoester T40A/WT ([7]; 1,2-ethanediol, ethyl acetate): 4.0; Selectivity diol/monoester ([7]; 1,2-ethanediol, ethyl acetate, listed as T40A CALB): 7.6
